Laboratory results as given in publication PMC4862333 (The Journal of Cell Biology, 2016).

Columns and labels:
[1] = biological target: the molecule itself; test: native gel or EMSA
[2] = biological target: the molecule itself; test: in vitro oligomerization assay

B1: His-Sumo-tagged Cab45 (recombinant) (natural protein, human, UniProt Q9BRK5 37-362, looked up)
chain: RPANHSSTRERVANREENEILPPDHLNGVKLEMDGHLNRGFHQEVFLGKDLGGFDEDAEPRRSRRKLMVIFSKVDVNTDRKISAKEMQRWIMEKTAEHFQEAMEESKTHFRAVDPDGDGHVSWDEYKVKFLASKGHSEKEVADAIRLNEELKVDEETQEVLENLKDRWYQADSPPADLLLTEEEFLSFLHPEHSRGMLRFMVKEIVRDLDQDGDKQLSVPEFISLPVGTVENQQGQDIDDNWVKDRKKEFEELIDSNHDGIVTAEELESYMDPMNEYNALNEAKQMIAVADENQNHHLEPEEVLKYSEFFTGSKLVDYARSVHEEF
binding result [1]: binds

B2: ATTO488-labeled recombinant Cab45 (natural protein, human, UniProt Q9BRK5 37-362, looked up)
chain: RPANHSSTRERVANREENEILPPDHLNGVKLEMDGHLNRGFHQEVFLGKDLGGFDEDAEPRRSRRKLMVIFSKVDVNTDRKISAKEMQRWIMEKTAEHFQEAMEESKTHFRAVDPDGDGHVSWDEYKVKFLASKGHSEKEVADAIRLNEELKVDEETQEVLENLKDRWYQADSPPADLLLTEEEFLSFLHPEHSRGMLRFMVKEIVRDLDQDGDKQLSVPEFISLPVGTVENQQGQDIDDNWVKDRKKEFEELIDSNHDGIVTAEELESYMDPMNEYNALNEAKQMIAVADENQNHHLEPEEVLKYSEFFTGSKLVDYARSVHEEF
modifications: ATTO488 (NHS-ATTO488 label)
binding result [2]: binds
